B1: PDZK1 (parent)
chain: QKEQGLSDNILSPVMNGGVQTWTQ

Variants of: B1
Test: protein stability index of a GFP-peptide fusion (GPS, HEK-293T) (PSI 1-6); higher = more stable
Conditions: c terminus: a fixed tail appended
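Note: lentivirally expressed fusions sorted by FACS into six bins by GFP to DsRed ratio, PSI derived from sequencing read proportions per bin multiplied by bin number.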

With QKEQGLSDGILSPVMNGGVQTWTQ [N9G] as the variant, how does the protein stability index read?
The protein stability index was 2.56.

For QKEQGLSDTILSPVMNGGVQTWTQ [N9T], which protein stability index is on record?
The protein stability index was 2.56.

For QKEQGLSDVILSPVMNGGVQTWTQ [N9V], which protein stability index is on record?
Its protein stability index is 2.38.

With QKEQGLSDHILSPVMNGGVQTWTQ [N9H] as the variant, how does the protein stability index read?
Its protein stability index is 2.34.

With QKEQGLSDMILSPVMNGGVQTWTQ [N9M] as the variant, how does the protein stability index read?
The protein stability index was 2.74.

With QKEQGLSDFILSPVMNGGVQTWTQ [N9F] as the variant, how does the protein stability index read?
Its protein stability index is 1.86.

With QKEQGLSDAILSPVMNGGVQTWTQ [N9A] as the variant, how does the protein stability index read?
Its protein stability index is 2.67.

For QKEQGLSDYILSPVMNGGVQTWTQ [N9Y], which protein stability index is on record?
The protein stability index was 1.78.

For QKEQGLSDLILSPVMNGGVQTWTQ [N9L], which protein stability index is on record?
The protein stability index was 2.21.

For QKEQGLSDIILSPVMNGGVQTWTQ [N9I], which protein stability index is on record?
The protein stability index was 2.88.

With QKEQGLSDDILSPVMNGGVQTWTQ [N9D] as the variant, how does the protein stability index read?
Its protein stability index is 3.45.

With QKEQGLSDKILSPVMNGGVQTWTQ [N9K] as the variant, how does the protein stability index read?
Its protein stability index is 1.8.

With QKEQGLSDQILSPVMNGGVQTWTQ [N9Q] as the variant, how does the protein stability index read?
The protein stability index was 2.5.

Which protein stability index does the source give for QKEQGLSDSILSPVMNGGVQTWTQ [N9S] here?
Its protein stability index is 2.75.

For QKEQGLSDRILSPVMNGGVQTWTQ [N9R], which protein stability index is on record?
Its protein stability index is 2.05.

With QKEQGLSDCILSPVMNGGVQTWTQ [N9C] as the variant, how does the protein stability index read?
The protein stability index was 2.67.

With QKEQGLSDEILSPVMNGGVQTWTQ [N9E] as the variant, how does the protein stability index read?
Its protein stability index is 3.25.

For CKEQGLSDNILSPVMNGGVQTWTQ [Q1C], which protein stability index is on record?
Its protein stability index is 1.91.

For EKEQGLSDNILSPVMNGGVQTWTQ [Q1E], which protein stability index is on record?
Its protein stability index is 3.26.

For WKEQGLSDNILSPVMNGGVQTWTQ [Q1W], which protein stability index is on record?
The protein stability index was 1.94.

For YKEQGLSDNILSPVMNGGVQTWTQ [Q1Y], which protein stability index is on record?
Its protein stability index is 2.47.

For VKEQGLSDNILSPVMNGGVQTWTQ [Q1V], which protein stability index is on record?
The protein stability index was 1.96.

For NKEQGLSDNILSPVMNGGVQTWTQ [Q1N], which protein stability index is on record?
The protein stability index was 2.75.

For LKEQGLSDNILSPVMNGGVQTWTQ [Q1L], which protein stability index is on record?
The protein stability index was 2.41.

For DKEQGLSDNILSPVMNGGVQTWTQ [Q1D], which protein stability index is on record?
Its protein stability index is 3.37.

Which protein stability index does the source give for KKEQGLSDNILSPVMNGGVQTWTQ [Q1K] here?
The protein stability index was 2.58.

Which protein stability index does the source give for RKEQGLSDNILSPVMNGGVQTWTQ [Q1R] here?
Its protein stability index is 2.02.

With FKEQGLSDNILSPVMNGGVQTWTQ [Q1F] as the variant, how does the protein stability index read?
Its protein stability index is 1.97.

For IKEQGLSDNILSPVMNGGVQTWTQ [Q1I], which protein stability index is on record?
Its protein stability index is 2.12.

With TKEQGLSDNILSPVMNGGVQTWTQ [Q1T] as the variant, how does the protein stability index read?
The protein stability index was 2.7.

For AKEQGLSDNILSPVMNGGVQTWTQ [Q1A], which protein stability index is on record?
The protein stability index was 2.61.

Which protein stability index does the source give for SKEQGLSDNILSPVMNGGVQTWTQ [Q1S] here?
The protein stability index was 2.1.

With GKEQGLSDNILSPVMNGGVQTWTQ [Q1G] as the variant, how does the protein stability index read?
The protein stability index was 2.15.

With PKEQGLSDNILSPVMNGGVQTWTQ [Q1P] as the variant, how does the protein stability index read?
Its protein stability index is 3.23.

Which protein stability index does the source give for MKEQGLSDNILSPVMNGGVQTWTQ [Q1M] here?
Its protein stability index is 2.98.

For QKEQGLSDNIESPVMNGGVQTWTQ [L11E], which protein stability index is on record?
Its protein stability index is 3.97.

For QKEQGLSDNIFSPVMNGGVQTWTQ [L11F], which protein stability index is on record?
Its protein stability index is 2.13.

Which protein stability index does the source give for QKEQGLSDNIASPVMNGGVQTWTQ [L11A] here?
The protein stability index was 3.47.

For QKEQGLSDNIISPVMNGGVQTWTQ [L11I], which protein stability index is on record?
The protein stability index was 1.89.

Which protein stability index does the source give for QKEQGLSDNIHSPVMNGGVQTWTQ [L11H] here?
The protein stability index was 2.75.

With QKEQGLSDNICSPVMNGGVQTWTQ [L11C] as the variant, how does the protein stability index read?
Its protein stability index is 2.63.

With QKEQGESDNILSPVMNGGVQTWTQ [L6E] as the variant, how does the protein stability index read?
Its protein stability index is 3.65.

With QKEQGPSDNILSPVMNGGVQTWTQ [L6P] as the variant, how does the protein stability index read?
The protein stability index was 3.03.

Which protein stability index does the source give for QKEQGGSDNILSPVMNGGVQTWTQ [L6G] here?
Its protein stability index is 2.61.

Which protein stability index does the source give for QKEQGHSDNILSPVMNGGVQTWTQ [L6H] here?
The protein stability index was 3.12.

With QKEQGWSDNILSPVMNGGVQTWTQ [L6W] as the variant, how does the protein stability index read?
The protein stability index was 2.56.

Which protein stability index does the source give for QKEQGCSDNILSPVMNGGVQTWTQ [L6C] here?
Its protein stability index is 2.98.

For QKEQGQSDNILSPVMNGGVQTWTQ [L6Q], which protein stability index is on record?
The protein stability index was 3.92.

For QKEQGYSDNILSPVMNGGVQTWTQ [L6Y], which protein stability index is on record?
Its protein stability index is 2.49.

Which protein stability index does the source give for QKEQGASDNILSPVMNGGVQTWTQ [L6A] here?
The protein stability index was 2.96.

With QKEQGKSDNILSPVMNGGVQTWTQ [L6K] as the variant, how does the protein stability index read?
Its protein stability index is 4.46.

For QKEQGDSDNILSPVMNGGVQTWTQ [L6D], which protein stability index is on record?
Its protein stability index is 2.65.

Which protein stability index does the source give for QKEQGTSDNILSPVMNGGVQTWTQ [L6T] here?
The protein stability index was 3.27.

For QKEQGRSDNILSPVMNGGVQTWTQ [L6R], which protein stability index is on record?
Its protein stability index is 3.71.

With QKEQGNSDNILSPVMNGGVQTWTQ [L6N] as the variant, how does the protein stability index read?
Its protein stability index is 3.29.

With QKEQGFSDNILSPVMNGGVQTWTQ [L6F] as the variant, how does the protein stability index read?
The protein stability index was 1.87.

Which protein stability index does the source give for QKEQGMSDNILSPVMNGGVQTWTQ [L6M] here?
Its protein stability index is 2.12.

Which protein stability index does the source give for QKEQCLSDNILSPVMNGGVQTWTQ [G5C] here?
The protein stability index was 3.57.

For QKEQMLSDNILSPVMNGGVQTWTQ [G5M], which protein stability index is on record?
Its protein stability index is 1.99.

With QKEQILSDNILSPVMNGGVQTWTQ [G5I] as the variant, how does the protein stability index read?
Its protein stability index is 2.48.

Which protein stability index does the source give for QKEQALSDNILSPVMNGGVQTWTQ [G5A] here?
The protein stability index was 2.4.

Which protein stability index does the source give for QKEQDLSDNILSPVMNGGVQTWTQ [G5D] here?
Its protein stability index is 2.85.

Which protein stability index does the source give for QKEQPLSDNILSPVMNGGVQTWTQ [G5P] here?
The protein stability index was 3.15.

With QKEQQLSDNILSPVMNGGVQTWTQ [G5Q] as the variant, how does the protein stability index read?
The protein stability index was 2.7.

For QKEQRLSDNILSPVMNGGVQTWTQ [G5R], which protein stability index is on record?
Its protein stability index is 2.7.

Which protein stability index does the source give for QKEQTLSDNILSPVMNGGVQTWTQ [G5T] here?
Its protein stability index is 2.92.

For QKEQSLSDNILSPVMNGGVQTWTQ [G5S], which protein stability index is on record?
The protein stability index was 1.87.

Which protein stability index does the source give for QKEQWLSDNILSPVMNGGVQTWTQ [G5W] here?
The protein stability index was 2.29.

With QKEQHLSDNILSPVMNGGVQTWTQ [G5H] as the variant, how does the protein stability index read?
Its protein stability index is 1.98.

With QKEQNLSDNILSPVMNGGVQTWTQ [G5N] as the variant, how does the protein stability index read?
The protein stability index was 2.7.

Which protein stability index does the source give for QKEQELSDNILSPVMNGGVQTWTQ [G5E] here?
The protein stability index was 2.82.

Which protein stability index does the source give for QKEQFLSDNILSPVMNGGVQTWTQ [G5F] here?
Its protein stability index is 2.44.

With QKEQYLSDNILSPVMNGGVQTWTQ [G5Y] as the variant, how does the protein stability index read?
Its protein stability index is 1.66.

With QKEQGLSTNILSPVMNGGVQTWTQ [D8T] as the variant, how does the protein stability index read?
Its protein stability index is 2.39.

For QKEQGLSWNILSPVMNGGVQTWTQ [D8W], which protein stability index is on record?
Its protein stability index is 2.4.

Which protein stability index does the source give for QKEQGLSPNILSPVMNGGVQTWTQ [D8P] here?
The protein stability index was 2.34.

For QKEQGLSENILSPVMNGGVQTWTQ [D8E], which protein stability index is on record?
The protein stability index was 3.04.

Which protein stability index does the source give for QKEQGLSVNILSPVMNGGVQTWTQ [D8V] here?
Its protein stability index is 2.29.

With QKEQGLSCNILSPVMNGGVQTWTQ [D8C] as the variant, how does the protein stability index read?
Its protein stability index is 1.51.

Which protein stability index does the source give for QKEQGLSRNILSPVMNGGVQTWTQ [D8R] here?
The protein stability index was 2.59.

For QKEQGLSLNILSPVMNGGVQTWTQ [D8L], which protein stability index is on record?
Its protein stability index is 2.73.

For QKEQGLSINILSPVMNGGVQTWTQ [D8I], which protein stability index is on record?
Its protein stability index is 2.05.

With QKEQGLSGNILSPVMNGGVQTWTQ [D8G] as the variant, how does the protein stability index read?
Its protein stability index is 3.29.

For QKEQGLSFNILSPVMNGGVQTWTQ [D8F], which protein stability index is on record?
Its protein stability index is 1.1.

For QKEQGLSNNILSPVMNGGVQTWTQ [D8N], which protein stability index is on record?
Its protein stability index is 2.68.

Which protein stability index does the source give for QKEQGLSSNILSPVMNGGVQTWTQ [D8S] here?
The protein stability index was 2.34.

For QKEQGLSYNILSPVMNGGVQTWTQ [D8Y], which protein stability index is on record?
The protein stability index was 2.15.

With QKEQGLSMNILSPVMNGGVQTWTQ [D8M] as the variant, how does the protein stability index read?
The protein stability index was 1.92.

Which protein stability index does the source give for QKEQGLSKNILSPVMNGGVQTWTQ [D8K] here?
Its protein stability index is 2.1.

With QFEQGLSDNILSPVMNGGVQTWTQ [K2F] as the variant, how does the protein stability index read?
The protein stability index was 2.26.

Which protein stability index does the source give for QHEQGLSDNILSPVMNGGVQTWTQ [K2H] here?
The protein stability index was 2.81.

With QTEQGLSDNILSPVMNGGVQTWTQ [K2T] as the variant, how does the protein stability index read?
Its protein stability index is 3.26.

With QCEQGLSDNILSPVMNGGVQTWTQ [K2C] as the variant, how does the protein stability index read?
The protein stability index was 3.57.

For QNEQGLSDNILSPVMNGGVQTWTQ [K2N], which protein stability index is on record?
The protein stability index was 2.88.
